Values quoted from earlier work as cited in paper PMC7343451.

Molecular target: SARS-CoV-2 spike RBD (Severe acute respiratory syndrome coronavirus 2) (UniProt P0DTC2)

In the case of “hACE2 peptide 21-43 (from UniProt Q9BYF1)”, the Kd is given as 47 nM.
